Reference: publication PMC6035221, “Interaction between parasite-encoded JAB1/CSN5 and macrophage migration inhibitory factor proteins attenuates its proinflammatory function” (Scientific Reports, 2018)

Molecular target: T1, GST-tagged full-length EhJAB1 (Entamoeba histolytica, UniProt C4LTS3 1-318)
T1 construct: EhJAB1 of Entamoeba histolytica, EHI_050500, full length (gene of 957 base pairs; deletions count to residue 318), codon optimized; Cloned in pDEST15 and sub-cloned in pGEX-4T1; also called GST-EhJAB1; GST-JAB1; source: E. coli BL21(DE3); purified on glutathione-sepharose (BLI)
T1 sequence (looked up): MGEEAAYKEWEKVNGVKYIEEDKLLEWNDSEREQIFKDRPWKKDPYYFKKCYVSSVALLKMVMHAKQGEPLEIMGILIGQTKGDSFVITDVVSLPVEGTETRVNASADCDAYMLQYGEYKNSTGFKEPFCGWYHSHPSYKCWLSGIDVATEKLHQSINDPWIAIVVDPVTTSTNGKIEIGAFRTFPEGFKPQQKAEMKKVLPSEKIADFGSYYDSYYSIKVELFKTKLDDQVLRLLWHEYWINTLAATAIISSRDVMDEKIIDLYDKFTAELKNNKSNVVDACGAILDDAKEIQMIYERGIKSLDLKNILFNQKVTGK
Assay: BLI; GST-EhJAB1 or GST loaded on anti-GST biosensors; EhMIF 5 to 80 nM (2-fold series); 1x DPBS, 0.1% BSA, 0.02% Tween 20; association 600 s, dissociation 600 s
Conditions: both partners purified

B1: Entamoeba histolytica MIF (EhMIF), recombinant (natural protein)
chain: MPHALITLSADITEEIKKEIAHESMKILSEVIGKPISYCATQVVTSVGGFGGKIVKSAFIDIKSISGLKGKQEGLSDRYCKLLEQKAGIEGGNIYLNFTEMTGNNWGYDHSTF
- Kd: 38.6 nM
